Assay results from patent US20250223361A1 (MABTREE BIOLOGICS, published 2025).
Changes are numbered by the printed parent chain. Blank lines part the entries; values can stand above or below the molecule they belong to.

Assays:
human PD-L1.his Protein [1] = biological target: T1, human PD-L1.his Protein (human, UniProt Q9NZQ7 19-238, limits assumed); test: ELISA, coated human PD-L1.his, absorbance at 450 nm; lower table
T1 construct: Produced in-house (Genscript); also called HuPD-L1-his; not shown: his tag
T1 sequence (Q9NZQ7 19-238 limits assumed): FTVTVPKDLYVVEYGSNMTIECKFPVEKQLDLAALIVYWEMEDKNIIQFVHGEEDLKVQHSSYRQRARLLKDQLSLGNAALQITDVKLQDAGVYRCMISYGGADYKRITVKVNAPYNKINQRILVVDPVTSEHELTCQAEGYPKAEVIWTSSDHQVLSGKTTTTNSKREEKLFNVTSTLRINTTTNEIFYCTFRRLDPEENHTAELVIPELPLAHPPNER

human PD-L1.his Protein [2] = biological target: T1, human PD-L1.his Protein; test: ELISA, coated human PD-L1.his, absorbance at 450 nm; upper table
human PD-L1.his Protein [3] = biological target: T1, human PD-L1.his Protein; test: SPR Biacore T200, antibody Fc-captured, antigen as analyte
Method: The affinity of purified antibody binding to antigen was individually determined using a Surface Plasmon Resonance (SPR) biosensor, BiacoreT200 (GE Healthcare). Antibodies were immobilized on the sensor chip through Fc capture method. Antigen was used as the analyte. The data of dissociation (kd) and association (ka) rate constants were obtained using Biacore T200 evaluation software. The equilibrium dissociation constants (KD) were calculated from the ratio of kd over ka.

human PD-L1.his Protein [4] = biological target: T1, human PD-L1.his Protein; test: GATOR instrument kinetics, HuPD-L1-his
human PD-L1.his Protein [5] = biological target: T1, human PD-L1.his Protein; test: GATOR instrument kinetics, HuPD-L1-his; reference parental antibody AHP01679
human PD-L1.his Protein [6] = biological target: T1, human PD-L1.his Protein; test: ELISA, coated human PD-L1.his, absorbance at 450 nm
Method: To evaluate the fully human IgGs binding activity to human PD-L1 protein, ELISA EC50 determination was performed. Briefly, human PD-L1.his protein was coated with 0.5 μg/ml in CBS, 100 μl/well at 4° C., incubated for overnight. Washed three times and blocking with 3% BSA-PBS at 37° C. for 1 hour. Then diluted fully human IgGs in 1% BSA-PBS were added to the blocked wells. […] Incubation at room temperature for 2 hours. […] The plates were washed for additional 6 times and the substrate solution were added to the wells for developing reaction. The absorption was measured at 450nm using a spectrometer.

human PD-L1 on CHO cells [7] = biological target: T2, human PD-L1 on CHO cells (human, UniProt Q9NZQ7 19-290); test: cell-based or functional assay
T2 sequence (Q9NZQ7 19-290): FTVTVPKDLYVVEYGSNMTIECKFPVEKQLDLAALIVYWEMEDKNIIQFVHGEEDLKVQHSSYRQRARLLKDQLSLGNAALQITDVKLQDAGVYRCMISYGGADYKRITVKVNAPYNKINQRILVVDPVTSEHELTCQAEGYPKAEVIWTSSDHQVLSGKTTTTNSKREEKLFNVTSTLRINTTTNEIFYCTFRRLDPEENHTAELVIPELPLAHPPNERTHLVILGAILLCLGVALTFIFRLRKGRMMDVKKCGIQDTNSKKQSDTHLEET

human PD-L1 on CHO cells [8] = biological target: T2, human PD-L1 on CHO cells; test: cell-based or functional assay; remark: listed apart in the source

absorbance at 0.00564503 ng/ml (human PD-L1.his Protein [1]): 0.058
absorbance at 0.01693509 ng/ml (human PD-L1.his Protein [1]): 0.067
absorbance at 0.05080526 ng/ml (human PD-L1.his Protein [1]): 0.061
absorbance at 0.15241579 ng/ml (human PD-L1.his Protein [1]): 0.064
absorbance at 0.45724737 ng/ml (human PD-L1.his Protein [1]): 0.057
absorbance at 1.37174211 ng/ml (human PD-L1.his Protein [1]): 0.065
absorbance at 12.345679 ng/ml (human PD-L1.his Protein [1]): 0.064
absorbance at 37.037037 ng/ml (human PD-L1.his Protein [1]): 0.059
absorbance at 111.111111 ng/ml (human PD-L1.his Protein [1]): 0.067
absorbance at 333.333333 ng/ml (human PD-L1.his Protein [1]): 0.059
absorbance at 1000 ng/ml (human PD-L1.his Protein [1]): 0.081
absorbance at 1.3717 ng/ml (human PD-L1.his Protein [2]): 0.078
absorbance at 4.1152 ng/ml (human PD-L1.his Protein [2]): 0.052
absorbance at 37.0370 ng/ml (human PD-L1.his Protein [2]): 0.052
absorbance at 111.1111 ng/ml (human PD-L1.his Protein [2]): 0.054
absorbance at 333.3333 ng/ml (human PD-L1.his Protein [2]): 0.058
absorbance at 1000 ng/ml (human PD-L1.his Protein [2]): 0.069
absorbance at 3000 ng/ml (human PD-L1.his Protein [2]): 0.121
Molecule: negative control human IgG (antibody)

Kd (human PD-L1.his Protein [3]): 4.09 nM
koff (human PD-L1.his Protein [3]): 0.00259 s⁻¹
kon (human PD-L1.his Protein [3]): 635000 M⁻¹ s⁻¹
Kd (human PD-L1.his Protein [4]): 0.351 nM
koff (human PD-L1.his Protein [4]): 0.00132 s⁻¹
kon (human PD-L1.his Protein [4]): 3.77e+06 M⁻¹ s⁻¹
KD (Parental Ab)/KD (Candidate Ab) (human PD-L1.his Protein [5]): 1 fold
EC50 (human PD-L1.his Protein [6]): 0.00334 µg/mL
EC50 (assay not named; EC50 is defined in paragraph 62 as the concentration of antibody required to block binding of PD-1/PD-L1 by 50%) (human PD-L1 on CHO cells [7]): 0.163 µg/mL
EC50 (read off the curve), PD-1/PD-L1 blockade luciferase reporter assay [panel E] (human PD-L1 on CHO cells [8]): ~0.2 µg/mL
EC50, PD-1/PD-L1 blockade luciferase reporter assay [panel E] (human PD-L1 on CHO cells [8]): 0.153 µg/mL
B1: AHP01679 (antibody, human IgG1, lambda, V domains shown)
VH: EVQLVQSGAEVKKPGSSVKVSCKASGGTFSSYAISWVRQAPGQGLEWMGRIIPILGIANYAQKFQGRVTITADKSTSTAYMELSSLRSEDTAVYYCTTFIQQWLYAFDIWGQGTMVTVSS
VL: QAVLTQPSSVSGAPGQRVTISCTGSSSNIGAGYDVHWYQQLPGTAPKLLIYGNNNRPSGVPDRFSGSKSGTSASLAITGLQAEDEADYYCQSYDSSLSGSVFGGGTKLTVLG
notes: Fully human full-length IgG (IgG1 constant region, lambda light chain); also called Parental Ab; parental antibody

Kd (human PD-L1.his Protein [4]): 0.0338 nM
koff (human PD-L1.his Protein [4]): 0.000145 s⁻¹
kon (human PD-L1.his Protein [4]): 4.29e+06 M⁻¹ s⁻¹
KD (Parental Ab)/KD (Candidate Ab) (human PD-L1.his Protein [5]): 10.4 fold
EC50 (assay not named; EC50 is defined in paragraph 62 as the concentration of antibody required to block binding of PD-1/PD-L1 by 50%) (human PD-L1 on CHO cells [7]): 0.0966 µg/mL
B2: QJ001-45 (antibody, human IgG1, lambda, V domains shown)
VH: B1 VH with I100F
VL: B1 VL with T23F, Q91G
notes: also called P02897
